Experimental findings from the DeepSol protein solubility set are described below.

A short description of the data set: soluble on expression in E. coli; label from the status in PepcDB or PDB records.
In the case of “MLASLHIANYVLIDRLDIDFAPHFSVITGETGAGKSILLGALGLLVGGRADTSAIAPGTDRCIVEGRFTGFVPEMKAVLDRYDLDFDPDECTIRREISSKGKSRAFVNDTPAPLTALRELADFLIDIHSQHKNLLLGDSLFQLNVLDAYSGKPDLYAHYSKAYRVYAERKQKLEDLRKAAAATASEYDYWQFRFEQLDKAGLESGEEARLQEEQAMLTHALDIKRELGHSYSLLSDDERGLLSGLNKVEDALATIESYYPDSASFRQRVRDVRIELADIASDLGRRSDDVSYEPERLNAVTDRLDEILSLLHRYNADSSDALIAIRDDLAERLSRISTDEEEISRLEQEVLAFYKEIEAQASLLTEERIRAASALETSLCESLRKLNMPHVRFVVDIRSTEYGPHGADKVVFLFSANKQMEPEPVSEIASGGEIARLMLCLKALIADKRSLPAIVFDEIDTGVSGEVADRMGEIMAHMGQGMQVLAITHLPQIAARGERHYFVYKDETGERARTFIRELTPEERIREIARMQSGNNLTDVALAAAKELLAR”, the “soluble on expression in E. coli” value is “not soluble”. As for “MLCSMGTLFQRLSSLDGKGYGAYKSIAGRHALEGVPGAELFLDKVQSDPYAPASLSRVRVPLAALPFSGSLSTHQRDLLNRRIAGEFCHGLAIDCPGQQVLSRAAVTQLDDALQICFEVQLPARGRRIRGREAAQLLCTTLSRALDRALCITAGGDALRAELEAAAELERDQAALR”, the entry is “not soluble”; as for “MLDTQTIAIVKSTIPLLAATGPKLTAHFYERMFKHHPELKNIFNMSNQSSGDQREALFNAICAYATNIENLAALLPTVERIAQKHTSLNIQPEHYPIVGEHLIATLDELFSPGQAVLDAWAKAYGVLADVFIQRESQIYQQSETETGGWRTLRRFRIIKKEQQSEVICSFVLAPEDGGQVLHYKPGQYLGIYIEHESLEFQEIRQYSLTTAPNGKTYRIAVKREEQGTVSNLLHRELNEGDIVRIAPPRGDFFLDVSPDTPVALISAGVGQTPMLSMLNTLYSQQHAAPVHWLHAAENGRVHAFADEVSAIAAKMPNLSRHVWYREPDLQDKHGEDYHSQGLMDLSSYQWLADDPKRHYYFCGPLPFMQFIGRQLLAQGIAPEQIHYECFGPHKVI”, “not soluble”; as for “MLDVPVLLAAVSPDSPCGDDLEYDAAFLELERIAQGQPERQMGDAVLPAEPPEWPRVRALASELFGRSKDLRVANLLLQSNVALDGLDGLADGLLLVRELLGQYWDGVYPLLDADDDNDPTFRINALTGLVAEPLLQLVWAIPLVRSRAFGPVNLRAALNAAGLQRFASETLSPEQIAGAFADADADALAATRRALDGAQEHALAIESGVAERVGSAQGLDLGPLRQLLRQALQVFDLYGPQGAGESLAPGAEAVADEQVGAAPVAAVAAPAPRASGEIANREDVLRQLDRLLEYYVRHEPSSPVPVLLKRAKTLVTADFAEIVRNLIPDGISQFETLRGPESE”, “not soluble”. As for “MLEEELARKIERYFSIEEEALKKIRISPAEGSFLRKIAEDNMQMILSYYSDAKHFYAKGDLINAFAALNYSYGWIDAGVRLGIFDGAGDHRLFTLYE”, the entry is “not soluble”; as for “MLEEPFFPYQSLASDLLAFLPEDSTDGSHDLSHIHRVWMNVRRLQDKEGGDLEALLAATLLHDCVAVEKNSPLRSQASTLSANKAASILQRMGWPAPRIELVAHAVQAHSFSAGVEPLTLEARILQDSDRLDAIGMIGVARCFYIAGRMGSALYDITNPTAIGRPYQDKRFTIEHFHTKLLSLASGFQTVEGARLAAVRHARLKDFLDGFMEEIGAPDLEHHHHHH”, “soluble”.

As for “MLEKHWSKSLVDSFESSKNKPSNLNGKKYILSMFPYPSGRLHIGHMRVYTISDATARYYRLNGYEVIHPIGWDSFGLPAENAARDKGVDPREWTINNIESMKQQLLKTKILFDWEKEISTCEPEFFRWTQWIFCKLFEYGLVKRTSSEVNWDPIDKTVLAAEQIDNDGKSWRSGAKAEKKKLSQWMIETPKYAKRLQEGLRKMSEQWGEVADIQANWIGKCDVYRFMLPVMKDGSNDEIIDLRIKDIFEISNAEFLVLKQSHSLADKDATQFPYKLPFQVLNGVTGRQIPVIVVEDTYQPDVTSFLNSRIGNFQKDKILVEKFAIAEPKHKRKLTKNDIQEMASFGGYGGYETSRTLTDWVVSRQRGWGTPIPMIQTKDGKRVAVQLNKLPVLGSDRGQEVDKERFGESGVFDTDTLDTFFDSAWYYLRYLDNKNKSELISKGAMKNMPVDVYVGGIEHAAVHMFFARFVAYFLKDINVIQTAEPFTDLIPQGIVRGKTFIEKETGKYLGSEDVQQSGDKLTLKNDSSVEVDAVYEKMSKSKNNGVDLAAILDSEGVDMTRLRLLEAAAPRAPINWGETDLKGIKKLLDRIAAINSQIVDARDNGKPIELKKEIDGSIKETYNFFVRNVGMCLEVLHLHNTALMRIQGFTNALKKVDPIYLAHSPEGQRAVKSLIIMLQVFCPHVASEMWSALANDGSLVSDQKWPEVDKDADIEFLLMIDGVSGGRPSLDRRIIEEMSMDQLWERATFYEHADILRMMKEDGMKLKNSSYISRKGFHVTLSCSLEGDKEENRKKIGKILDRIQAEKRKLEIGKKGGKRKKEKKIVNK”, the “soluble on expression in E. coli” value is listed as “not soluble”. In the case of “MLERILSRENLIQALERVEKNKGSYGVDEMDVKSLRLHLHENWTSIRNEIIEGSYFPKPVRRVEIPKPNGGVRKLGIPTVMDRFLQQAIAQILTQLYDPTFSERSFGFRPHRRGHNAVRQAKQWMKEGYRWVVDIDLEKFFDKVNHDRLMRKLSSRIQDPRVLQLIRRYLQTGVMERGLVSPNTEGTPQGGPLSPLLSNIVLDELDNELEKRGLKFVRYADDCNIYVRSKRAGLRIMESVTSFIENRLKLKVNREKSAVDRPWNRKFLGFSFTRGKDPKMRVSKESVKRLKQRIRELTSRRHSMKMSDRLRRLNRYLTGWLGYYQVVDTPSILAQIDAWIRRRLRMIRWKEWKTTSARQKNLVRLGIKKAKAWQWANSRKGYWRVAHSPIMDYALNSEYWKGQGLMSLAERYQTRRWTLEHHHHHH”, the “soluble on expression in E. coli” value is “soluble”.

With “MLESSLTFLLLPVGFPGEVLVTLARRAREAMPVPSLWLASTDPLEPPIEAYSWERMQFDAEKVNEHIHSVLYDYVREGIRIIGVVDADGYIPGFNFVFGLASTALGVATVYTRRLKTGGNGLYTERLLKEVLHEAGHLLGLDHCSNRECVMSFSRSVEEVDRKAPLFCSSCKAKLVLKYGSRGQLEHHHHHH”, the “soluble on expression in E. coli” value is listed as “soluble”.

Regarding “MLEVSVMTIRRDLHQEDEPLPLTLLGGYIVMVNKPAPSMPVIHDVPKNHRDDLPIAILAAGMVNENDLIFFDNGQEIPLVISMIPDAITFTGICYSHRVFVALNEKPNVTAILCGGTYRARSDAFYDASNSSPLDSLNPRKIFISASGVHNHFGVSWFNPEDLATKRKVMNRGLRKILLARHALFDEVASASLAPISAFDVLISDRPLPADYVTHCQNGSVKIITPDSEDELEHHHHHH”, the “soluble on expression in E. coli” value was “not soluble”. As for “MLICNDKSNPKTLLEEIMALRPWRKGPFEISQIKIDSEWDSSIKWDLVKNATPLKDKVVADVGCNNGYYLFKMLEHGPKSLVGFDPGVLVKKQFEFLAPFFDKEKKIIYESLGVEDLHEKYPNAFDVIFCLGVLYHRKSPLEALKALYHALKIKGELVLDTLIIDSPLDIALCPKKTYAKMKNVYFIPSVSALKGWCERVGFENFEILSVLKTTPKEQRKTDFILGQSLEDFLDKTDPSKTLEGYDAPLRGYFKMLKPSKR”, the entry is “not soluble”; as for “MLIERIYDEDLAQASYFIGCQAHNTAVVVDPRRDIAVYLDMAKKNGMEIVGVTETHIHADYLSGTRELAAATNATMYVSGEGGADWQYEFDAERICDGSEIRLGNLVLTAVHTPGHTPEHLSFLLKDGAFADEPGFMLTGDFVFAGDLGRPDLLDEAAGGVDTRFEGARQMFKSLKEKFLTLPDHIQIFPGHGSGSACGKALGSVPSTTLGYERQFAWWGKYLEADDEQGFIDELLEGQPDAPAYFGRMKRQNRQGPAIMGARELLPQLEASDLHDVIVVDTRSADEVHQGTVAGAVNIPAGNSMAKFGSWTVDPEKDSRALVLLAASQIGAMEMWDHMVRVGIDNVAGFITNFDGVDLVAPQTVSPDQLDELEYDLLLDVRNRSEVEEGYIPGALHINGASVLWNLEKLPRDGKIVSYCKSGTRSSIAASTLRNAGFDVVELQGSYDNWVRHNAQLEHHHHHH”, “not soluble”.
